Experimental findings from the DeepSol protein solubility set are described below.

The nature of the series: soluble on expression in E. coli; label from the status in PepcDB or PDB records.
With “MEGLTPEMQREAEALRREWETNPRWKGVRRDYRPEDVVRLRPSVMVEYTLAKRGAEKLWKLLHERPYVHTFGAYTGAMAVEMVRAGLEAIYLSGWQVAADANLAWQTYPDQSLYPYNSVPQIVKRINNALMRADQVERIEGRVTRDWYVPIVADAEAGFGGALNVFELTKAMIEAGAAGIHYEDQLASEKKCGHLGGKVLVPTGQHIRTLQAARLAADVMGVPTVIIARTDAEAATLITSDIDERDKPFILPDERTPEGFYRFKNGIEAGIARALAYAPYADVIWMETSKPDLEEARKFAEAVKKEFPDKLLAYNLSPSFNWKKFLDDETIAKFNRELGEMGYKFQFITLAGWHALNYYIWELAKGYKERGMPAFVELQQKEFAAQKEGFTAVKHQREVGAGYFDEVVLALTQGQASTLALKGSTEEAQFNEPVH”, the “soluble on expression in E. coli” value was “soluble”.

Turning to “MNSIKNVPARVLSRRPGHSLEAEREQFDKTQAISISKAINTQEAPVKEKHARRIILGTHHEKGAFTFWSYAIGLPLPSSSILSWKFCHVLHKVLRDGHPNVLHDCQRYRSNIREIGDLWGHLHDRYGQLVNVYTKLLLTKISFHLKHPQFPAGLEVTDEVLEKAAGTDVNNIFQLTVEMFDYMDCELKLSESVFRQLNTAIAVSQMSSGQCRLAPLIQVIQDCSHLYHYTVKLLFKLHSCLPADTLQGHRDRFHEQFHSLRNFFRRASDMLYFKRLIQIPRLPEGPPNFLRASALAEHIKPVVVIPEEAPEDEEPENLIEISTGPPAGEPVVVADLFDQTFGPPNGSVKDDRDLQIESLKREVEMLRSELEKIKLEAQRYIAQLKSQVNALEGELEEQRKQKQKALVDNEQLRHELAQLRAAQLEGERSQGLREEAERKASATEARYNKLKEKHSELVHVHAELLRKNADTAKQLTVTQQSQEEVARVKEQLAFQVEQVKRESELKLEEKSDQLEKLKRELEAKAGELARAQEALSHTEQSKSELSSRLDTLSAEKDALSGAVRQREADLLAAQSLVRETEAALSREQQRSSQEQGELQGRLAERESQEQGLRQRLLDEQFAVLRGAAAEAAGILQDAVSKLDDPLHLRCTSSPDYLVSRAQEALDAVSTLEEGHAQYLTSLADASALVAALTRFSHLAADTIINGGATSHLAPTDPADRLIDTCRECGARALELMGQLQDQQALRHMQASLVRTPLQGILQLGQELKPKSLDVRQEELGAVVDKEMAATSAAIEDAVRRIEDMMNQARHASSGVKLEVNERILNSCTDLMKAIRLLVTTSTSLQKEIVESGRGAATQQEFYAKNSRWTEGLISASKAVGWGATQLVEAADKVVLHTGKYEELIVCSHEIAASTAQLVAASKVKANKHSPHLSRLQECSRTVNERAANVVASTKSGQEQIEDRDTMDFSGLSLIKLKKQEMETQVRVLELEKTLEAERMRLGELRKQHYVLAGASGSPGEEVAIRPSTAPRSVTTKKPPLAQKPSVAPRQDHQLDKKDGIYPAQLVNY”, the “soluble on expression in E. coli” value is reported as “soluble”.

On to “SPINPYKDHMSVLKAYYAMNMEPNSDELLKISIAVGLPQEFVKEWFEQRKVYQYSNSR”, for which the “soluble on expression in E. coli” value is recorded as “soluble”.

Consider “HMFPARWHNYLQCGQVIKDSNLICFKTPLRPELFAYVTSEEDVWTAEQIVKQNPSIGAIIDLTNTSKYYDGVHFLRAGLLYKKIQVPGQTLPPESIVQEFIDTVKEFTEKCPGMLVGVHCTHGINRTGYMVCRYLMHTLGIAPQEAIDRFEKARGHKIERQNYVQDLLI”, for which the “soluble on expression in E. coli” value is given as “soluble”.

Take “MGSDKIHHHHHHMLVRQEALSSKMSIKDLPSSSPLPNANLVLVFGSVRRFSDGKLPTQLKERYPAAQIVGCTTSGEIGPHGVSDDSLQITAIAWDNTMQRVTYARANNMQTSAETAINLAKQLKSDSLRTILVFSDGLHINGSELLQGFQSVLGDIPIVGGMAGDNAEFSRTLQLLNDSIEEGLVVAIGLYGDKLITASGALGGWKPYGPPRKITRSEKNVVYEMDGKPALPLYRMYIGEQNAKALPGSGLRFPFAVIEEGKREVEKVRTLLAIDPEENSLTFAGNVEEGETVRLCQTTHDRLVEGAGGAARLVTANLDTSQPGLALCVSCVGRKLVMAEQIADEIQAVQQTLGSQTALTGFYSYGEFCPRPNTTDNVLHNQTMTIGYLSEAL”: the “soluble on expression in E. coli” value is “not soluble”.

Take “MGSDKIHHHHHHVQYLDKLVSGLAVELHVPEGDYEGNYKTHVDEIGKTRLSVYAPHYQGMIIPLQEGTLVEVTFWDDVASYSFMSSVLQRVATPIPMFVLKMPDSIRRVQRRNYVRVSASFPITYQVVEREGLGDLLKGNMLDLSGGGMRFQAKVKLDKGSILYANLELPCGIIGTPGRVCRVEPIEDTKYFSVSVDFYQISERDRDRIIRCVFDIQRDLRKKGLI”: the “soluble on expression in E. coli” value was “not soluble”.

Turning to “MGSDKIHHHHHHMVLNINSFYKNCRGEFMRAVFIYHKNNQRMEKFYKNLLNEPDFCRICDDCYNCRGNWTFKNNVKNIVIEEVYEEFVDNPYDYLPELPEGDICIAQLHEDLLYELPLLLKEKGYKALIVPSETPHDLSLALRRDLKRVCSNYNIEFENPKPFCSLEKKEGNEYINKFIDYFKIGKPELEIEVENGLIKDVKVKISAPCGETYYIAKRLKGKAIDDLKEEIANAHHNYPCLASMEMDKELGDTILHKAGYIAFEVVEKALKK”, the “soluble on expression in E. coli” value is given as “not soluble”.

Consider “GPGSMDFVPTVAVIRANPVEGVRYAYTSTVSDNRYDSFVEDAVMQYSGNVNEADGSDRASPRFSGRSVVNLQRAILQCGDIRVSDKQDAEPVGVWRCLAGAILAACCFLRSYSTCPSESFDECGAEVCDAFVPAGVAMIIFSGVCDTRPLSFSEECPFSAAVTAATRLRTAVHVFGPAVVSSALGLRLQALANTTGGIWAPQFALSHVGYLMELAVRRNGQREMDSATNSRRQRELLVERYVVPPACLPQDPAQTGVASGENVSYLAWLCSACLATLVRHPHEEVGAIRMCPYCAASK”, for which the “soluble on expression in E. coli” value is “not soluble”.

Consider “MYCIEEKIEKALGIKEASLVLKNCNIVNVFSSEIIRGDLAIDGDTIIGIGKYKGKTEIDLSNKYVAPGFIDSHVHIESSMVSPKEFARAVISRGTTTIIVDPHEIANVCGMDGIKYMMEETKNMPLDVFFMLSSCVPLEHHHHHH”, for which the “soluble on expression in E. coli” value was “not soluble”.

In the case of “MFNQTQTVTYPATFLGAKKFKGEIDGSNIDTCSVLVATPLPAQSGNAVGFTAAQMKFGDSKNFSKLENLKYPCEVMVTVEMTSTGKGMVPSLIDFQVAEKPKG”, the “soluble on expression in E. coli” value was “not soluble”.

With “MGSDKIHHHHHHMSKLDAFIQQAVTAMPISGTSLIASLYGDALLQRGGEVWLGSVAALLEGLGFGERFVRTALFRLNKEEWLDVVRIGRRSFYRLSDKGLRLTRRAEHKIYRASAPEWDGTWLLLLSEGLEKNVLADVKKQLLWQGFGALAPSLLASPSQKLADVQSLLHEAGVAENVICFEAHSPLALSRAALRDRVEECWHLTEQNEMYEAFIALFRPLLPLLRDSEPSELTPERCFQIQLLLIHFYRRVVLKDPLLPEELLPAHWAGQTARQLCINIYQRVSPGALAFVSEKGESSVGELPAPGPLYYQRFGGLPGA”, the “soluble on expression in E. coli” value is on record as “not soluble”.

In the case of “MAHHHHHHMQLQADLTQRTDSVNAIQRNFERLSAMHHAEQLELRRLRLLEKTRSEVAPDGLDAATRQLESVLAEMRHKALEQQTTFVQMEVDLQAANSSCALQQGIARLIASHADGFRDVLQAEAVAHSQLYQSAMSERAIIGSRNEATQQQLLCKDVAQLVADHQAQIVTKLIRGGAAESCRLQKSLAQVSTATVQELVRQGLRETAEAVHQYVASIHAADQERVLAEAEGQRDRERLRLALGELLRLRLRATEEAEATARQALLFGALQACATAQRAAEEVRLLTANADAAAAATRSSWEVTAALLTRRVSDWHDAADMRLVDFHDTIEASMAEKARERDAQSQQKTQELLLEERKRLENLHASQMQTMQVDWRRQRDAVQQSHAMQLEQVRSDLVAQVQVAEDRRVAAERRTGAMEAALIQLKRDHAAEVQAVEAHWRSAVSDAGRHCEQRWRTMLEVYQEGQKAHRGAMLQLFVDFLCTRGQCVYEEQAERAALCRSHWRNQTQHLREEQAAVMQHGVATADLLERMRCHKEDEAASRAVLHASEASDWAALVRKEAAHNAQAHHAVSMAAAAAGLEGLRAEMAGREVRWGQRLDALEADLRRAQQKCLGVVRRASDAVVAAQEAQAALQATQRDFAAYRCGVSAAAQRIEVAESATESACCCSLCLQLYCQPVACVPCGHIYCANCLLRHARNRSLSSVTSSFASAAGASTSENGAVGARAALEVTHWLRGKSTPHAFLFCPECASATVSTVVELPILGELTAKYDYKKRSLAVLLAELR”, the “soluble on expression in E. coli” value is on record as “not soluble”.

As to “MGSDKIHHHHHHMTALDDKTIVRDYFNATGFDRWSRIYGDGEVNFVQKNIRIGHQRTVDTVLSWLEADGNLSDRSFCDAGCGVGSLSLPLAQRGAQAVYASDISAKMVEEARERASQIPNLNNIQLEVSDLASLSGRYDTVICLDVLIHYPESDAAAMLSHLCSLAEQRVLVSFAPKSPVLNVLKRIGQFFPGASKTTRAYQHSETAIAAALAANGFQVQRRAFNKAPFYFSLLLEAVRTA”, the “soluble on expression in E. coli” value is on record as “not soluble”.

As for “MSTNPGPAEGANQVMAQEHSAGAVQFTAHNVRLDDGTLTIPESSRTLDESSWFISARGILETVFPGDKSHLRLADVGCLEGGYAVGFARMGFQVLGIEVRELNMAACNYIKSKTNLPNLRFVHDNALNIANHGLFDTVFCCGLFYHLENPKQYLETLSSVTNKLLILQTHFSIINRSDKWLRLPTTARQLTDRLLRRPAPVKFMLSAPTEHEGLPGRWFTEFSDDRSFGQRDTAKWASWDNRRSFWIQREHLLQAIKDVGVDLVMEEYDNLEPSIAESLLGGSYAANLRGTFIGIKTR”, the “soluble on expression in E. coli” value is reported as “soluble”.

Turning to “MSSVPKNKDELELAINSIFPKLMVDYRSIPESKARKVGVEGNVKGTFISVSDTVAYLIGWGKLVLKWHRLKSQNQHVDFPETGYKWNQLGLLAESFHEEYRDWKYSDLLVELEFTINEILLLISSLSDHELYGVAWYEQWTLGRMIQFNTSSPMKNMRTKVRRFNREFTLEHHHHHH”, the “soluble on expression in E. coli” value is reported as “not soluble”.

As to “EFVINPNGKSEVCILHEYMQRVLKVRPVYNFFECENPSEPFGASVTIDGVTYGSGTASSKKLAKNKAARATLEILIPDFVKQTSE”, the “soluble on expression in E. coli” value is listed as “soluble”.

Take “MAHHHHHHMYLHLIKNSTAKTPQLYTAKDNSKTAMHLLTRRAANANYTVNRWYLKEKVDSSNRMRLEGLYECVLCASCTGSCPQYWWNREHFLGPAVLLQSYRWLVEPLDRDFDERVRMFETGNLVNMCHNIFNCSITCPKFLNPGLASKEIKRLSSPSTKRVGPAIEMEPVTSGKEAGKRSLLQRL”: the “soluble on expression in E. coli” value is reported as “soluble”.

For “MGITREELRALVREVVREAVGSLNSSPAQASNQASKPAPPAPPPRATVADQMGLEPTGPRAVEGRNRTETVRLTDDKDLDTFVRKLLRLFESPKTRADLKAGRLRFRLAPGSGAAMANGQAQVTHRIDSGAVTERHIADLAGGTLVLGPRAVLTPLAREKARTLGIVIEKERR”, the “soluble on expression in E. coli” value is “not soluble”.

“MLQVCCYTSEGYKYAVGIDLVRFFDTVNHSFLLRILSRTINDGRVISLIHKYLTSGVMIGKHYEPSIEGTPQGAPLSPLLSNILLNELDKELERRGHCFVRYADDSMILCKSKRSAERVCSSITDFSFYFTKGKCRLCVHKTTKEKFKRKVKSLTRRSNSMGYAQRKEILWQTFRGWIGYFKYADMRSLLIPLDQWYRRHLRMCIWKCWKRVKTRFSNLQKCGIPKGKALEHHHHHH”: the “soluble on expression in E. coli” value is “soluble”.

Consider “MLEDDFGREVSGVRVSLTDRCNFDCVYCHNEGLGDTRGPMEAQDDELTADTIVAFLEVAAEFGVDSVKFTGGEPMLREDLEEIVRRAPDEMEVSMTTNGTFLPGRAPDLVDAGLERVNVSQDALDSEAFAELTQSGAYDRVLEGVEAALDAGLEPVKLNMVVFEPTAGYVPKMVDHVAENPGLQLQLIEYMPELAGHPEWAIDIDRVHDWLEDRADKVEHREMHDRKRYWMHSGEAAVEGDSASTSLAASDGGIRTEPVNNHNSGMVEIVDPVGNENFCANCHRVRLTHDGYLKGCLNRNDDLRDIGTTKESMRAAFRETVDTRVPYYGEYMIETEDGEWEINEEYIDTDGDRAPYEYSE”, for which the “soluble on expression in E. coli” value is recorded as “not soluble”.
